Measured values published in patent US20190276502A1 (OXFORD UNIVERSITY INNOVATION, published 2019).

B1: Recombinant His-tagged Eap protein (C-terminal MAP domain and adjacent basic region of S. aureus Eap) (other)
chain: VPYTIAVNGTSTPILSKLKISNKQLISYKYLNDKVKSVLKSERGISDLDLKFAKQAKYTVYFKNGKKQVVNLKSDIFTPNLFSAKDIKKIDIDVKQYTKSKKNK
notes: not shown: N-terminal His-tag and 3C protease site from vector pOPIN-F
B2: Recombinant EapH1 protein (MAP domain of S. aureus EapH1), His tag excised (other)
chain: PSHEASADSNNGYKEMTVDGYHTVPYTISVDGITALHRTYFIFPENKNVLYQEIDSKVKNELASQRGVTTEKINNAQTATYTLTLNDGNKKVVNLKKNDDAKNSIDPSTIKQIQIVVK
notes: The N-terminal His-tag was removed with HRV 3C protease; also called immobilized EapH1; untagged EapH1

Key:
[1] = target: T1, Recombinant Eap protein (C-terminal MAP domain and adjacent basic region of S. aureus Eap), His tag excised (Staphylococcus aureus Newman, UniProt A6QIG2 481-584); experiment: plate interaction assay (EIA): untagged protein immobilised, His-tagged ligand titrated, anti-His alkaline phosphatase detection, Kd by non-linear regression
T1 construct: The tag was removed with HRV 3C protease before coating on the plate; also called immobilized Eap; untagged Eap
T1 sequence: B1 chain

[2] = target: T2, Recombinant EapH2 protein (MAP domain of S. aureus EapH2), His tag excised (Staphylococcus aureus Newman, UniProt A0A0H3K729 24-144); experiment: as above
T2 construct: The N-terminal His-tag was removed with HRV 3C protease; also called immobilized EapH2; untagged EapH2
T2 sequence: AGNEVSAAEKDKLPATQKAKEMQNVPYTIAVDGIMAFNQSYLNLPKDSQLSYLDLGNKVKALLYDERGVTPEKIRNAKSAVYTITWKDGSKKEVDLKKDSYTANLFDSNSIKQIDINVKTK

[3] = target: T3, Recombinant His-tagged EapH2 protein (MAP domain of S. aureus EapH2) (Staphylococcus aureus Newman, UniProt A0A0H3K729 24-144); experiment: plate interaction assay (EIA): untagged protein immobilised, His-tagged ligand titrated, anti-His alkaline phosphatase detection
T3 construct: Made in E. coli and used as the soluble His-tagged ligand; not shown: N-terminal His-tag and 3C protease site from vector pOPIN-F
T3 sequence: T2 sequence

Binder	Kd [1]	Kd [2]	binding result [3]
B1	80 nM	82 nM	–
B2	–	–	binds
